In the nanobody polyreactivity screen of Harvey et al. (2022):

Assay: yeast display, Sf9 membrane polyspecificity reagent, FACS + sequencing; frameworks hold sequencing errors
Procedure, shortened: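 Sorting gates, low and high (top ~1%), were placed on anti-HA fluorescence to track expression and on streptavidin fluorescence to track reagent binding. A clone's polyreactivity label is taken from the gate it came out of. The reagent was 10% biotinylated, detergent-solubilized Sf9 membrane, applied for 1 hour at 4 °C to galactose-induced yeast display cells.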

Sequence	polyreactivity (PSR sort gate)
QVQLEESAGGLVQAGGSLRLSCAASGSIFFFYAKGRYREAPGKERELVAAITGSGGSTYYADSVKGRFTISRVNAKNTVYLQMNSLKPEDTAVYDCAFRTSRQVYSYAGYESWGQGTHVTVSS	low polyreactivity
QVQLVESGGGLVQAGGSLRLSCAASGRTFGRKAMGWYRQAPGKERELVAAIARSGASTYYADSVKGRFTISRDNAKNTVYLQMNSLNPEDTAVYYCAKDVWGSRYAYDYWGQGTQVTVSS	low polyreactivity
QVQLVESGGGLVQAGGSLRLSCAASGILLFNAMGWYRQAPGKERELVAPINSGGSTNYADSVKGRFTISRDNAKNTVYLQMKSLKPDDTAVYYCGKDTPFTLRVWAEGGMDYWGEGTQVTVSS	low polyreactivity
QVQLVESGGGLVQAGGSLRLSCAASGRIFPVYAMGWYRQAPGKERELVASISSSGARTYYADSVKGRFTISRDNAKNTVYLQMNSLKPEDTAVYYCNAVRYFSSHSFISDYWGQGTQVTVSS	low polyreactivity
QVQLVESGGGLVQAGGSLRLSCAASGIIFVINAMGWYRQAPGKERELVATITGSGTTNYADSVKGRFTISRDNAKNTVYLHMNSLKPEDTAVYYCARDDTEYARTGAYDYWGQGTQVTVSS	low polyreactivity
QVQLVESGGGLVQAGGSLRLSCAASGGTFSQYAMGWYRQAPGKERELVATISYSGTSTYYADSVKGRFTISRDNEKNTVYLHMNSLKPEDTAVYDCNIRWRWYRSDYYSWGQGTQVTVSS	high polyreactivity
QVQLVESGGGLVQAGGSLRLSCAASGFTFRGYVMGGYRQAPGKERELVAAITNIGTSTYYAHSVKGRFTISRDNAKNTVYVQMNSLKPEDTGVFFCAARLSTKFYYWGQVTQVTVSS	low polyreactivity
QVQLVESGGGLVQAGGSLRLSCAASGSTIDGYAMGWYRQAPRKERELVAAITFDGSSTYYADSVKGRFTISRDNAKNTVYLQMNSLKPEVTAVYYCAAASSYWVLWDDYWGQGTQVTVSS	low polyreactivity
QDQLVESRGGLVQAGGSLSISCAASGFTFRYYAMGWYRQAPGKERELVAGISWRGGSTNYADSVKGRFTISRDNAKNTVYFQMNSLNPDDSEVYSCNAVSYSFPILRVRPTWYDYWGQGTQVTVSS	high polyreactivity
QVQLVESGGGLVQAGGSLRLSCAASGFIFVVYAMGWYRQAPGQERELVAAITYSGGSTYYADSVKGRFTISRDNAKNTVYLQMNSLKPEDTAVYYCAAPEHDREFDYWGQGTQVTVSS	low polyreactivity
QVQLVESGGGLVQAGGSLRLSCPASGFIIRLYVMGWYRQAPGKERELVAAISSGGRTYYADSVKGRFTISRDNAKNTVYLQMNSLKPEDTAVYYCAAYVRGWGCDDFWGQGSQVTVSS	high polyreactivity
QFQLEESGGGLVQAGGSLRLSCADSGIIFFFYAMGWYRQAPGKERELVAAISDDGVSTDYADSVKGRFTISRDNAKNTVYLQMNSLKPEDTAVYYCAAKTERVYPWFSFGYWGQGTQVTVSS	low polyreactivity
QVQLVESGGGLVQAGGSLRLSCAASGLIFATNAMGWYRQAPGKERELVATITRSAGRTYYADSVKGRFTISRDNAKNPVYLQMNSLKPEDTAVYYCAASYWDTEPGYREYDYWGQGTQVTVSS	low polyreactivity
QVQLVESGGGLVQAGGSLRLSCAASGSTIKSNVLGWYRQAPGKERELVAAISSGDSTYYADSVKGRFTISRDNGKNTVYFQLNSLKPVDTAVFYCAARLGLQLVDTPDNDYWGQGTEVTVSS	low polyreactivity
QVQLVESGGGLVQAGGSLRLSCAASGRTFWPNAMGWYRQAPGKERELVAGIDWSGGSTYYADSVKGRFTISRDNAKNTVYLQMNSLKPEDTAVYYCNKVYYSYIPSTYGYWGQGTQVTVSS	high polyreactivity
QVHLVESGGGLVQAGGSLRLSCAASGRNFAYNAMGWYRQAPGKETELVASFTSGGSTNYADSVKGRFTISRDNANNTVYLQMNSLKPEDSAVYYCNKDGKYHRVLYDYWGQGTQVTVSS	low polyreactivity
QVQLVESGGGLVQAGGSLRLSCAASGSTLVNNAMGWDRQAPGKEREWVAAITFSGGTTYYADSVKGRFTISRDNAKNTVYLQMNSLKPEDTAVYYCAAEIWLEYVGYDYWGQGTQVTVSS	high polyreactivity
QVQLVESGGGLVQAGGSLRLSCAASGRIFVKNAMGWYRQAPGKERELVAAISSSSGSTYYADSVKGRFTISRDNAKNTVYLQMNSLKPEDTAVYYCATVRWYYSRPRPTTAYGYWGQGTQVTVSS	high polyreactivity
QVQLVESGGGLVQAGGSLRLSCAASGSILGTYAMGWYRQAPGKERELVAAISASGRTSYADSEKGRFTISRDNAKNTVYLQMNSLKPEDTAVYDCNASNYFVLINDPDAAPWLYDYWGHGTQVTVSS	low polyreactivity
QVQLVESGGGLVQAGGSLRLSCAASGNIFGWNDMGWCRQAPGKEWEVVAAISWTGDSTYDADSVKGRFTISRDNAKNTVYLQMNSLKPEDTAVYYGAADTPTLQYLTPRSEFDAWGQGTQVTVSS	low polyreactivity
QLQLHESGGVQAGGSLRLSCAAGGYISRSDVMGWYRQAPGKERELVATINNGTITYYADSVKGRFNISRDNAKNTVYLQMNSLKREDTAVHYWAVVQSDCDSLYYWGQGTQVTVSS	low polyreactivity
QVQLVESGGGLVQAGGSLRLSCAASGITFGDNDMGWYRQAPGKDRELVASISSGGSTTYADSVKGRFTISRDNAKNTVYLQMNSLKPEDTADYYCNADYGSSVEYNYWGQGTQVTVSS	low polyreactivity

Sequence	polyreactivity (PSR sort gate)
QVQLVESGGGLVHAGGSLRLSCAASGSIFRGYAMGWYRQAPGKERELVAAISRDGGSTYYADSVKGRFSISRDNAKNTVYLQMNSLKPEETAVYYCAADYVAYATYGDGDYWGQGTQVTVSS	high polyreactivity
QVQLVESGGGLVQAGGSLRLSCAASGSIFKVYAMGWYRQAPGKERELVASITSGGRTYADSVKGRFTISRDNAKNTVYLQMNSLKPEDTAVYYCSARSRSKFYYWGQGTQLTVSS	high polyreactivity
QVHLVESGGGLVQAGGSLRLSCAASGGTFQSYAMGWYRQAPGKERELVAAITQGGGRTYYADSVKGRFTISRDNAKNTVYLQMNSLKPEDTAVYYCAARQKTPYYYNYGYWGQGTQVTVSS	high polyreactivity
QVQLVESGGGLVQAGGSLRLSCPASGFTFHHYVMGWYRPAPGKEMEFVASIRWRGGSTYYADSVKGRFTISRDNAKTTVYLQMNSLKPEDTAVYYSNADPYVYSSWQYGYWGQGTQVTVSS	high polyreactivity
QVQLVESGGGLVQAGGSLRLSCAASGFTYPGYAMGWYRQAPRKERELVASITDNGANTYYADSVKGRFTISRDNAKNTVYLQMNSLKPEDTAVYYCAADPGRVTRVGVRYYYWGQGTQVTVSS	high polyreactivity
QVQLVESGGGLDQAGGSLRLSCAASGRIFVGYARGWYRQAPVKERELVASITGRGTSTYYADSVKGRFTISRDNAKNTVYLQMNSLKPEDTAVYYCNALYRKYRNQWYISNYGYYYWGQGTQVTVSS	low polyreactivity
QVQLVESGGGLVQAGGSLRLSCAASGIIFYYYAMGWYRQAPGKERELVAAITGTGSRTYYADSVKGRFTISRDNAKNTVYLQMNSLKPEDTAVYYCNARSFATGSKVPARGYWGQGTQVTVSS	high polyreactivity
QVQLVESGGGLVQAGGSLRLSCAASGSIFTLYAMGWYRQAPGKERELVAAINRSGGSTYYADSVKGRFTISRDNAKNTVYLQMNSVKPEATAVYYCNARQYTGRRYDYWGQGTQVTVSS	high polyreactivity
QVQLVESGGGLVQAGGSLRLSCAAYGNTFEGYAKGWYRQAPGKERELVAAISGSSGSTYYADSVKGRFTISRDNAKNTVYLQMNSLKPEDTAVYYCAAYSYYPPYDYWGQGTQVTVSS	high polyreactivity
QFQLVESGGGLVQARGSLRLSCAASGSTFSQYAMGWYRQAPGKERELVAAITTSDGTTNYADSVKGRFTISRDNAKNTVFLQMNILQPEDTAVYYCNNEYFYYSFGYWGQGTQVTVSS	low polyreactivity
QVQLVESGGGLVQAGGSLRLSCAASGYIFWENAMGWYRQAPGKERELVAAITVSGGGTYYADSVKGRFTISRDNAKNTVYLQMNSLEPEDTAVYSCAADEDNPWLWFYYCGQGTQVTVSS	low polyreactivity
QVQLVESGGGLVQAGGSLRLSCAASGSIFWINAMGWYRQAPGKERELVADIDVSGGSTYYADSVKGRFTISRDNAKNTVYLQMNSLKPEDTAVYYCAADDYWAYLYYKTSEYDYWGQGTQVTVSS	low polyreactivity
QVQLVESGGGLVQAGGSLRLSCAASGSIFTPNAMGWYRQAPGKERELVAAISWSGARTYYADSVKGRFTISRDNAKNTVYLQMNSLKPEDTAVYYSYAFGSWGQGTQVTVSS	high polyreactivity
QVQLVESGGGLVQAGGSLRLSCAASGLTFASNAMGWYRQAPGKERELVAAISWSDGSTYYADSVKGRFTISRDNAKNTVYLQMNSLKPEDTAVYYCAADPPGFRTYRVGYWGQGTQVTVSW	low polyreactivity
QVQLVESGGGLVQAGGSLRLSCAASGRIFKGYAMGWYRQAPGKESELVAAITWRGGTTYYADSVKGRFTISRDNAKNTVYLQMNSLKPEDTAVYYCARARPTGYNYWGQGTQVTVSS	high polyreactivity
QVQLVESGGGLVQAGGSLRLSCAASGRNFRRYAMGWYRQAPGKERELVATISGSGTSTYYADSVKGRFTISRDNAKNTVYLQMNSLKPEDTAVYYCAAGNPYYRTSQYYHWGQGTQVTVSS	high polyreactivity
QVQLVESAGGLVQAGGSLRLSCAASGRIFGINSLGWYRQAPGKERELDAAISSGGSTYYADSVKGRFTISRDNAKYTVYILMNSEKPVDSAVYYCASDYDSSVCHDRGFWRDYWGQGNQVTVSS	low polyreactivity
QVQLVESGGGLVQAGGSLRLSCAASGSISYPNAMGWYRQAPGKERELVAAINSGDRTNYADSVKGRFTISRDNAKNTVYLQMNSLKPEDTAVYYCARRRYLLWGGYGYWGQGTQVTVSS	low polyreactivity
QVQLVESGGGLVQAGGSLRLSCAPSGYNFSKYAMGWYRQAPGKERELVAAITSGGGSTYYADSVKGRFTISRDNAKNTVYLQMNSLKPEDTAVYYCNAACRRIVGQTYDYWGQGTQVTVSS	high polyreactivity
QVQLVESGGGLVQAGGSLRLSCAASGSIFIYNVMGWYRQAPGKERELVATIRGSGGSTYYADSVKGRFTISRDNAKNTVYLQMNSLKPEDTAVYYCARRDYPYQWGRAYNYWGQGTQVTVSS	high polyreactivity
QVQLVESGGGLVQAGGSLRLSCAASGRIDRPYAMGLYRPAPGKERELVAAISRRGGSTYYADSVKGRFTISRDNAKNTVYLQMKSLKPEDTAVYYCAADYWYESLRLQGIQGLDYWGQGTQVTVSS	high polyreactivity
